Assay results published in EP1557429A1 (Vectron Therapeutics AG, dated 2005).
Positions count from the first letter of the chain named.

How the values were obtained:
[1] = biological target: T1, EGF receptor (UniProt P00533 25-1210, limits assumed); experiment: immunofluorescence of phage on A431 cells
T1 construct: whole, on cells; also called epidermal growth factor receptor

[2] = biological target: T1, EGF receptor; experiment: competition of fdEGF phage binding to A431 cells, FACS, inhibition from mean fluorescence intensity

B1: EGF1 library clone 3 (phage-displayed EGF variant) (other)
chain: NSDSECPLSHDGYCLHDGVCMYIEALDEYACNCVVGYIGERCQYRDLRWWELR
modifications: displayed on phage as a coat protein fusion (pHEN3)
notes: also called EGF1 # 3; not shown: phage coat protein fusion partner of phagemid pHEN3 (and any vector tags) at the C end
binding result [1]: binds

B2: HisEGFm1 (EGFm1 with N-terminal hexahistidyl tag) (ligand, human, UniProt P01133 971-1023, looked up)
chain: B1 chain with E28Q, R45S, R48S, R53S
notes: mature; Clone 6 of the EGF2 library selection, expressed in the E. coli periplasm and purified by IMAC; The preparation also held molecules of about 15 kDa (dimer size); also called purified EGFm1; soluble EGFm1; not shown: N-terminal hexahistidyl tag (HHHHHH); primer SfiHisEGF encodes ...Met-Ala-Gly-His6-Ala befor
IC50 [2]: ~500 nM
